B1: RUN and FYVE domain-containing protein 1, residues 639 to 698; numbered along this chain, Q96T51 (parent)
chain: WLKDDEATHCRQCEKEFSISRRKHHCRNCGHIFCNTCSSNELALPSYPKPVRVCDSCHTL

Abundance fitness data for 45 variants are collected here from the Human Domainome abundance scans (Beltran et al. 2025).

± gives the uncertainty stated by the source.

This data set covers variants of B1. Nature of the data set: abundance fitness (aPCA) (normalised: wild type 0, dead -1); higher = more abundant; growth selection in yeast, the domain comes from the species named. The conditions noted are these: Homo sapiens.
Take WLKDDEATHCRQCEKEFSISRRKHHCRNCGHIFCNTCSSNNLALPSYPKPVRVCDSCHTL [E41N]: the abundance fitness is -0.184 ± 0.065. As for WLKDDEATHCRQCEKEFSISRRKHHCRNCGHIFCNTCSSNTLALPSYPKPVRVCDSCHTL [E41T], the figure is -0.11 ± 0.045; as for WLKDDEATHCRQCEKEFSISRRKHHCRNCGHIFCNTCSSNLLALPSYPKPVRVCDSCHTL [E41L], -0.18 ± 0.034; as for WLKDDEATHCRQCEKEFSISRRKHHCRNCGHIFCNTCSSNMLALPSYPKPVRVCDSCHTL [E41M], -0.134 ± 0.052. On to WLKDDEATHCRQCEKEFSISRRKHHCRNCGHIFCNTCSSNHLALPSYPKPVRVCDSCHTL [E41H], for which the abundance fitness was -0.195 ± 0.056. As for WLKDDEATHCRQCEKEFSISRRKHHCRNCGHIFCNTCSSNCLALPSYPKPVRVCDSCHTL [E41C], the figure is -0.11 ± 0.065; as for WLKDDEATHCRQCEKEFSISRRKHHCRNCGHIFCNTCSSNKLALPSYPKPVRVCDSCHTL [E41K], -0.038 ± 0.059; as for WLKDDEATHCRQCEKEFSISRRKHHCRNCGHIFCNTCSSNYLALPSYPKPVRVCDSCHTL [E41Y], -0.126 ± 0.072.

As to WLKDDEATHCRQCEKEFSISRRKHHCRNCGHIFCNTCSSNVLALPSYPKPVRVCDSCHTL [E41V], the abundance fitness is -0.063 ± 0.042.

In the case of WLKDDEATHCRQCEKEFSISRRKHHCRNCGHIFCNTCSSNGLALPSYPKPVRVCDSCHTL [E41G], the abundance fitness was -0.522 ± 0.064. In the case of WLKDDEATHCRQCEKEFSISRRKHHCRNCGHIFCNTCSSNSLALPSYPKPVRVCDSCHTL [E41S] it was -0.155 ± 0.032; in that of WLKDDEATHCRQCEKEFSISRRKHHCRNCGHIFCNTCSSNALALPSYPKPVRVCDSCHTL [E41A], -0.182 ± 0.04; in that of WLKDDEATHCRQCEKEFSISRRKHHCRNCGHIFCNTCSSNWLALPSYPKPVRVCDSCHTL [E41W], -0.384 ± 0.074. In the case of WLKDDEATHCRQCEKEFSISRRKHHCRNCGHIFCNTCSSNEVALPSYPKPVRVCDSCHTL [L42V] it was 0.092 ± 0.047; in that of WLKDDEATHCRQCEKEFSISRRKHHCRNCGHIFCNTCSSNEPALPSYPKPVRVCDSCHTL [L42P], -0.606 ± 0.076; in that of WLKDDEATHCRQCEKEFSISRRKHHCRNCGHIFCNTCSSNEAALPSYPKPVRVCDSCHTL [L42A], 0.11 ± 0.045.

With WLKDDEATHCRQCEKEFSISRRKHHCRNCGHIFCNTCSSNETALPSYPKPVRVCDSCHTL [L42T], the abundance fitness is -0.071 ± 0.046.

WLKDDEATHCRQCEKEFSISRRKHHCRNCGHIFCNTCSSNESALPSYPKPVRVCDSCHTL [L42S]: the abundance fitness is 0.096 ± 0.042. In the case of WLKDDEATHCRQCEKEFSISRRKHHCRNCGHIFCNTCSSNEIALPSYPKPVRVCDSCHTL [L42I] it was 0.214 ± 0.08; in that of WLKDDEATHCRQCEKEFSISRRKHHCRNCGHIFCNTCSSNEQALPSYPKPVRVCDSCHTL [L42Q], 0.295 ± 0.052; in that of WLKDDEATHCRQCEKEFSISRRKHHCRNCGHIFCNTCSSNEHALPSYPKPVRVCDSCHTL [L42H], 0.118 ± 0.083. In the case of WLKDDEATHCRQCEKEFSISRRKHHCRNCGHIFCNTCSSNECALPSYPKPVRVCDSCHTL [L42C] it was 0.045 ± 0.05; in that of WLKDDEATHCRQCEKEFSISRRKHHCRNCGHIFCNTCSSNEGALPSYPKPVRVCDSCHTL [L42G], -0.026 ± 0.041; in that of WLKDDEATHCRQCEKEFSISRRKHHCRNCGHIFCNTCSSNEWALPSYPKPVRVCDSCHTL [L42W], -0.014 ± 0.044. In the case of WLKDDEATHCRQCEKEFSISRRKHHCRNCGHIFCNTCSSNEYALPSYPKPVRVCDSCHTL [L42Y] it was -0.151 ± 0.07.

WLKDDEATHCRQCEKEFSISRRKHHCRNCGHIFCNTCSSNERALPSYPKPVRVCDSCHTL [L42R]: the abundance fitness stood at 0.227 ± 0.035. In the case of WLKDDEATHCRQCEKEFSISRRKHHCRNCGHIFCNTCSSNEMALPSYPKPVRVCDSCHTL [L42M] it was -0.046 ± 0.057; in that of WLKDDEATHCRQCEKEFSISRRKHHCRNCGHIFCNTCSSNEFALPSYPKPVRVCDSCHTL [L42F], 0.034 ± 0.066; in that of WLKDDEATHCRQCEKEFSISRRKHHCRNCGHIFCNTCSSNEDALPSYPKPVRVCDSCHTL [L42D], 0.184 ± 0.057.

As to WLKDDEATHCRQCEKEFSISRRKHHCRNCGHIFCNTCSSNENALPSYPKPVRVCDSCHTL [L42N], the abundance fitness is -0.317 ± 0.14. With WLKDDEATHCRQCEKEFSISRRKHHCRNCGHIFCNTCSSNELLLPSYPKPVRVCDSCHTL [A43L], the abundance fitness came out at 0.058 ± 0.037. As for WLKDDEATHCRQCEKEFSISRRKHHCRNCGHIFCNTCSSNELCLPSYPKPVRVCDSCHTL [A43C], the figure is -0.128 ± 0.04; as for WLKDDEATHCRQCEKEFSISRRKHHCRNCGHIFCNTCSSNELNLPSYPKPVRVCDSCHTL [A43N], 0.034 ± 0.051; as for WLKDDEATHCRQCEKEFSISRRKHHCRNCGHIFCNTCSSNELILPSYPKPVRVCDSCHTL [A43I], 0.019 ± 0.063. In the case of WLKDDEATHCRQCEKEFSISRRKHHCRNCGHIFCNTCSSNELTLPSYPKPVRVCDSCHTL [A43T] it was -0.045 ± 0.058; in that of WLKDDEATHCRQCEKEFSISRRKHHCRNCGHIFCNTCSSNELYLPSYPKPVRVCDSCHTL [A43Y], -0.366 ± 0.069. Take WLKDDEATHCRQCEKEFSISRRKHHCRNCGHIFCNTCSSNELGLPSYPKPVRVCDSCHTL [A43G]: the abundance fitness was -0.124 ± 0.039. WLKDDEATHCRQCEKEFSISRRKHHCRNCGHIFCNTCSSNELRLPSYPKPVRVCDSCHTL [A43R]: the abundance fitness was -0.054 ± 0.036. Turning to WLKDDEATHCRQCEKEFSISRRKHHCRNCGHIFCNTCSSNELQLPSYPKPVRVCDSCHTL [A43Q], the abundance fitness is -0.008 ± 0.079. In the case of WLKDDEATHCRQCEKEFSISRRKHHCRNCGHIFCNTCSSNELMLPSYPKPVRVCDSCHTL [A43M] it was 0.021 ± 0.054. In the case of WLKDDEATHCRQCEKEFSISRRKHHCRNCGHIFCNTCSSNELWLPSYPKPVRVCDSCHTL [A43W] it was -0.405 ± 0.055; in that of WLKDDEATHCRQCEKEFSISRRKHHCRNCGHIFCNTCSSNELVLPSYPKPVRVCDSCHTL [A43V], 0.008 ± 0.038. WLKDDEATHCRQCEKEFSISRRKHHCRNCGHIFCNTCSSNELKLPSYPKPVRVCDSCHTL [A43K]: the abundance fitness was -0.071 ± 0.059.

As for WLKDDEATHCRQCEKEFSISRRKHHCRNCGHIFCNTCSSNELPLPSYPKPVRVCDSCHTL [A43P], the abundance fitness was 0.001 ± 0.04. In the case of WLKDDEATHCRQCEKEFSISRRKHHCRNCGHIFCNTCSSNELSLPSYPKPVRVCDSCHTL [A43S] it was -0.188 ± 0.043.
